In PMC3728347:
Each block holds one substance with its values, some of them ahead of it.

Experiments:
[1] = target: GNMT Y244A mutant (UniProt Q14749); assay: SEC; size-exclusion chromatography of wild type GNMT and catalytic-centre mutants; data not shown
[2] = target: GNMT Y6E mutant (UniProt Q14749); assay: SEC; size-exclusion chromatography on Sephacryl S300 of the folate-site mutants
[3] = target: GNMT L210S mutant (UniProt Q14749); assay: as above
[4] = target: GNMT M218D mutant (UniProt Q14749); assay: as above
[5] = target: GNMT W30F mutant (UniProt Q14749); assay: SEC; size-exclusion chromatography of wild type GNMT and catalytic-centre mutants; data not shown
[6] = target: GNMT D70A mutant (UniProt Q14749); assay: as above
[7] = target: Glycine N-methyltransferase, wild type (UniProt Q14749); assay: as above

stoichiometry N [1]: 4
Substance: GNMT Y244A mutant (from UniProt Q14749 1-295) (enzyme)

stoichiometry N [2]: 4
Substance: GNMT Y6E mutant (from UniProt Q14749 1-295) (enzyme)

percent of the protein as dimer [3]: 50% | percent of the protein as monomer [3]: 10% | percent of the protein as tetramer [3]: 40%
Substance: GNMT L210S mutant (from UniProt Q14749 1-295) (enzyme)

stoichiometry N [4]: 4
Substance: GNMT M218D mutant (from UniProt Q14749 1-295) (enzyme)

stoichiometry N [5]: 4
Substance: GNMT W30F mutant (from UniProt Q14749 1-295) (enzyme)

stoichiometry N [6]: 4
Substance: GNMT D70A mutant (from UniProt Q14749 1-295) (enzyme)

stoichiometry N [7]: 4
Substance: Glycine N-methyltransferase, wild type (from UniProt Q14749 1-295) (enzyme)
